Results taken from the supplement of paper PMC9112550, “Optimization of the antimicrobial peptide Bac7 by deep mutational scanning” (BMC Biology, 2022).

System: Escherichia coli TOP10
Test: shrunken log2 fold change of peptide-encoding DNA abundance (4.5 h post-induction vs induction); higher = less antimicrobial activity (less host growth inhibition)
Settings: time post-induction: 4.5 h; library: site-saturation at positions 5, 18, 19, 20
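Further: peptides expressed intracellularly from a pBAD plasmid library in pooled LB shake-flask culture, induced with 0.3% L-arabinose, DNA abundance read by NGS, three biological replicates, DESeq2 with apeglm shrinkage.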

RRIRKRPPRLPRPRPRPVRKPRP
shrunken log2 fold change: 0.0395

RRIRKRPPRLPRPRPRPVSHPRP
shrunken log2 fold change: 0.0254

RRIRKRPPRLPRPRPRPVSIPRP
shrunken log2 fold change: -0.0178

RRIRKRPPRLPRPRPRPVSMPRP
shrunken log2 fold change: 0.224

RRIRKRPPRLPRPRPRPVTRPRP
shrunken log2 fold change: 0.754

RRIRKRPPRLPRPRPRPVVSPRP
shrunken log2 fold change: -0.292

RRIRKRPPRLPRPRPRPVWAPRP
shrunken log2 fold change: 0.316

RRIRKRPPRLPRPRPRPVWKPRP
shrunken log2 fold change: 0.138

RRIRKRPPRLPRPRPRPVYSPRP
shrunken log2 fold change: 0.0204

RRIRKRPPRLPRPRPRPWFCPRP
shrunken log2 fold change: -0.0352

RRIRKRPPRLPRPRPRPWFRPRP
shrunken log2 fold change: 0.00108

RRIRKRPPRLPRPRPRPWGAPRP
shrunken log2 fold change: 0.449

RRIRKRPPRLPRPRPRPWGMPRP
shrunken log2 fold change: 0.142

RRIRKRPPRLPRPRPRPWHCPRP
shrunken log2 fold change: 0.0258

RRIRKRPPRLPRPRPRPWKQPRP
shrunken log2 fold change: 0.0185

RRIRKRPPRLPRPRPRPWKWPRP
shrunken log2 fold change: -0.0168

RRIRKRPPRLPRPRPRPWMPPRP
shrunken log2 fold change: 0.0548

RRIRKRPPRLPRPRPRPWNCPRP
shrunken log2 fold change: 0.0387

RRIRKRPPRLPRPRPRPWNEPRP
shrunken log2 fold change: -0.0249

RRIRKRPPRLPRPRPRPWNSPRP
shrunken log2 fold change: 0.0199

RRIRKRPPRLPRPRPRPWPRPRP
shrunken log2 fold change: 0.264

RRIRKRPPRLPRPRPRPWQMPRP
shrunken log2 fold change: 0.0764

RRIRKRPPRLPRPRPRPWRGPRP
shrunken log2 fold change: 0.155

RRIRKRPPRLPRPRPRPWTKPRP
shrunken log2 fold change: -0.0423

RRIRKRPPRLPRPRPRPWVPPRP
shrunken log2 fold change: 0.481

RRIRKRPPRLPRPRPRPWYVPRP
shrunken log2 fold change: -0.958

RRIRKRPPRLPRPRPRPYDHPRP
shrunken log2 fold change: -0.084

RRIRKRPPRLPRPRPRPYDLPRP
shrunken log2 fold change: 0.115

RRIRKRPPRLPRPRPRPYDQPRP
shrunken log2 fold change: 0.0359

RRIRKRPPRLPRPRPRPYFIPRP
shrunken log2 fold change: -0.515

RRIRKRPPRLPRPRPRPYFRPRP
shrunken log2 fold change: 0.123

RRIRKRPPRLPRPRPRPYFVPRP
shrunken log2 fold change: -0.264

RRIRKRPPRLPRPRPRPYFYPRP
shrunken log2 fold change: -0.274

RRIRKRPPRLPRPRPRPYGFPRP
shrunken log2 fold change: -0.294

RRIRKRPPRLPRPRPRPYKYPRP
shrunken log2 fold change: -0.00882

RRIRKRPPRLPRPRPRPYMAPRP
shrunken log2 fold change: -0.0833

RRIRKRPPRLPRPRPRPYNGPRP
shrunken log2 fold change: -0.00151

RRIRKRPPRLPRPRPRPYQKPRP
shrunken log2 fold change: -0.00762

RRIRKRPPRLPRPRPRPYQRPRP
shrunken log2 fold change: -0.0062

RRIRKRPPRLPRPRPRPYQYPRP
shrunken log2 fold change: -0.0576

RRIRKRPPRLPRPRPRPYRRPRP
shrunken log2 fold change: -0.105

RRIRKRPPRLPRPRPRPYSKPRP
shrunken log2 fold change: -0.608

RRIRKRPPRLPRPRPRPYTFPRP
shrunken log2 fold change: -0.264

RRIRKRPPRLPRPRPRPYTHPRP
shrunken log2 fold change: -0.376

RRIRKRPPRLPRPRPRPYVWPRP
shrunken log2 fold change: -0.36

RRIRKRPPRLPRPRPRPYWAPRP
shrunken log2 fold change: -0.448

RRIRKRPPRLPRPRPRPYWEPRP
shrunken log2 fold change: 0.0616

RRIRLRPPRLPRPRPRPAEKPRP
shrunken log2 fold change: -0.0786

RRIRLRPPRLPRPRPRPAEMPRP
shrunken log2 fold change: -0.111

RRIRLRPPRLPRPRPRPAEPPRP
shrunken log2 fold change: 0.188

RRIRLRPPRLPRPRPRPAEQPRP
shrunken log2 fold change: 0.0174

RRIRLRPPRLPRPRPRPAERPRP
shrunken log2 fold change: 0.139

RRIRLRPPRLPRPRPRPAETPRP
shrunken log2 fold change: 0.0382

RRIRLRPPRLPRPRPRPAFEPRP
shrunken log2 fold change: 0.36

RRIRLRPPRLPRPRPRPAGKPRP
shrunken log2 fold change: -0.132

RRIRLRPPRLPRPRPRPAIKPRP
shrunken log2 fold change: -0.139

RRIRLRPPRLPRPRPRPAKKPRP
shrunken log2 fold change: 0.0858

RRIRLRPPRLPRPRPRPAKNPRP
shrunken log2 fold change: 0.00752

RRIRLRPPRLPRPRPRPALAPRP
shrunken log2 fold change: 0.305

RRIRLRPPRLPRPRPRPALIPRP
shrunken log2 fold change: -0.00882

RRIRLRPPRLPRPRPRPALKPRP
shrunken log2 fold change: 0.489

RRIRLRPPRLPRPRPRPALMPRP
shrunken log2 fold change: 0.306

RRIRLRPPRLPRPRPRPALSPRP
shrunken log2 fold change: 3.4

RRIRLRPPRLPRPRPRPAQKPRP
shrunken log2 fold change: 0.37

RRIRLRPPRLPRPRPRPAQLPRP
shrunken log2 fold change: 0.166

RRIRLRPPRLPRPRPRPARRPRP
shrunken log2 fold change: 0.348

RRIRLRPPRLPRPRPRPARTPRP
shrunken log2 fold change: 0.468

RRIRLRPPRLPRPRPRPASPPRP
shrunken log2 fold change: 0.0633

RRIRLRPPRLPRPRPRPATCPRP
shrunken log2 fold change: -0.597

RRIRLRPPRLPRPRPRPATKPRP
shrunken log2 fold change: 0.0731

RRIRLRPPRLPRPRPRPATLPRP
shrunken log2 fold change: -0.12

RRIRLRPPRLPRPRPRPAWHPRP
shrunken log2 fold change: 0.183

RRIRLRPPRLPRPRPRPAWQPRP
shrunken log2 fold change: 0.202

RRIRLRPPRLPRPRPRPAYPPRP
shrunken log2 fold change: 0.283

RRIRLRPPRLPRPRPRPCAIPRP
shrunken log2 fold change: -0.218
